In paper PMC5065529, “Wnt Signalosome Assembly by DEP Domain Swapping of Dishevelled” (Molecular Cell, 2016):

B1: SNAP-FZD5 (Frizzled 5), wild type [human] / DEP_(414–507)-GFP, minimal DEP domain of DVL2 [human] (parent)
chain 1: GRGLSVHTDMASVTKAMAAPESGLEVRDRMWLKITIPNAFLGSDVVDWLYHHVEGFPERREARKYASGLLKAGLIRHTVNKITFSEQCYYVFGD
chain 2: ASKAPVCQEITVPMCRGIGYNLTHMPNQFNHDTQDEAGLEVHQFWPLVEIQCSPDLRFFLCSMYTPICLPDYHKPLPPCRSVCERAKAGCSPLMRQYGFAWPERMSCDRLPVLGRDAEVLCMDYNRSEATTAPPRPFPAKPTLPGPPGAPASGGECPAGGPFVCKCREPFVPILKESHPLYNKVRTGQVPNCAVPCYQPSFSADERTFATFWIGLWSVLCFISTSTTVATFLIDMERFRYPERPIIFLSACYLCVSLGFLVRLVVGHASVACSREHNHIHYETTGPALCTIVFLLVYFFGMASSIWWVILSLTWFLAAGMKWGNEAIAGYAQYFHLAAWLIPSVKSITALALSSVDGDPVAGICYVGNQNLNSLRGFVLGPLVLYLLVGTLFLLAGFVSLFRIRSVIKQGGTKTDKLEKLMIRIGIFTLLYTVPASIVVACYLYEQHYRESWEAALTCACPGHDTGQPRAKPEYWVLMLKYFMCLVVGITSGVWIWSGKTVESWRRFTSRCCCRPRRGHKSGGAMAAGDYPEASAALTGRTGPPGPAATYHKQVSLSHV

Variants of: B1
Experiment: FZD5-dependent PM recruitment of DEP-GFP (cell scoring)
Conditions: with DEP_(414–507)-GFP, 100 cells scored in each case

| screen value (parent: 52, read off a plot) | screen value (parent: 88, read off a plot) | Variant |
| --- | --- | --- |
| 52 % of cells | 88 % of cells | chain 2 S509A |
| 1 % of cells | 12 % of cells | chain 2 T230A |
| 5 % of cells | 62 % of cells | chain 2 K499A |
| 12 % of cells | 77 % of cells | chain 2 R237A |
| 50 % of cells | 92 % of cells | chain 2 E502A |
| 11 % of cells | 56 % of cells | chain 2 R239A |
| 60 % of cells | 90 % of cells | chain 2 S497A |
| 8 % of cells | 32 % of cells | chain 2 Y240A |
| 49 % of cells | 85 % of cells | chain 2 R510A |
| – | 20 % of cells | chain 2 P241A |
| 5 % of cells | 37 % of cells | chain 2 L417A |
| 6 % of cells | 36 % of cells | chain 2 T500A |
| 50 % of cells | 93 % of cells | chain 2 S503A |
| – | 30 % of cells | chain 2 I327A |
| 49 % of cells | 86 % of cells | chain 2 V406A |
| 49 % of cells | 96 % of cells | chain 2 R506A |
| 3 % of cells | 24 % of cells | chain 2 W504A |
| – | 41 % of cells | chain 2 A326T |
| 34 % of cells | 70 % of cells | chain 2 I403A |
| 45 % of cells | 92 % of cells | chain 2 K321A |
| – | 41 % of cells | chain 2 L420A |
| 56 % of cells | 92 % of cells | chain 2 G323T |
| – | 21 % of cells | chain 2 W494A |
